Blank lines part the entries; values can stand above or below the molecule they belong to.
T1: ScChc-NTD (Saccharomyces cerevisiae, UniProt P22137)
T1 construct: N-terminal domain (ScChc-NTD, 1–369) was cloned in a pETM-30 vector; His-GST (TEV site); made in house; host or cells: E. coli BL21 (DE3)
T1 sequence (P22137 1-369): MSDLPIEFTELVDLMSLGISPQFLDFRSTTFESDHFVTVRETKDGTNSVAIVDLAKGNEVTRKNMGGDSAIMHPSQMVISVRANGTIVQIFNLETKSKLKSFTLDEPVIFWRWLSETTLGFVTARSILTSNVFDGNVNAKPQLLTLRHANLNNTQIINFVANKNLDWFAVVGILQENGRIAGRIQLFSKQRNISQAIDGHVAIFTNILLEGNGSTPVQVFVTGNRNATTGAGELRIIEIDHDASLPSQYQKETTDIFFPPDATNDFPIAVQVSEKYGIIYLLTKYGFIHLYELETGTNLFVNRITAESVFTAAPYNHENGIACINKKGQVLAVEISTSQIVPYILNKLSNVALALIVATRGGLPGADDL

B1: Yap1801 CBM peptide (NLNLIDM) (peptide)
peptide: NLNLIDM
notes: source: synthetic peptide, bought: NovoProLabs
B2: Yap1802 CBM peptide (NPNLIDI) (peptide)
peptide: NPNLIDI
notes: as for B1
B3: Ent5.1 CBM peptide (IPDLIDLDD) (peptide)
peptide: IPDLIDLDD
notes: also called Ent5.1 LIDL motif; LIDL peptide; source: synthetic peptide, bought: NovoProLabs
B4: Apl2.1 CBM peptide (SQDLLDLF) (peptide)
peptide: SQDLLDLF
notes: also called LLDLF peptide; source: synthetic peptide, bought: NovoProLabs
B5: Saccharomyces cerevisiae clathrin heavy chain N-terminal domain (ScChc-NTD, 1-369) (domain or fragment, UniProt P22137 1-369, looked up)
chain: T1 sequence (P22137 1-369)
notes: Clathrin heavy chain N-terminal domain, Saccharomyces cerevisiae, residues 1-369; pETM-30 vector with a His-GST tag and a TEV cleavage site; also called WT NTD; source: E. coli BL21 (DE3), purified (Ni-NTA, TEV cleavage, reverse Ni-NTA, SEC)
B6: Ent2 endogenously tagged with mNeonGreen (Ent2-mNeonGreen) (natural protein, UniProt Q05785 1-613, looked up)
chain: MSKQFVRSAKNMMKGYSSTQVLVRDATANDSRTPSIDTLDDLAQRSYDSVDFFEIMDMLDKRLNDKGKYWRHVAKSLTVLDYLVRFGSENCVLWCRENFYVIKTLREFRHENESGFDEGQIIRVKAKELVSLLNDEERLREERSMNTRNRRANRAARPRPRRQRTRSNPHDSSPSYQDDLEKALEESRITAQEDEQRRRELAQYDDEDPDFQAALQLSKEEEELKQLQELQRLQKQQQSLSQFQAPLQQQQPQQQPAYYDIFGNPISQDEYLQYQYQQDQEQAMAQQRWLDQQQEQQQLAEQQYFQQQQQAAAAASALQQQQTAANMQQQQQQPADFQQPLPTGSNNPFSMDNLERQKQEQQHAQLQRQQEEARQQQEQLKLQQLQRQQQEEAQLHQKRQEEAQLQQQQAQLLQQQAQFQQQQPLKQTRTGNQSISDKYSDLNTLLATGTGIDTFGNTGEARIPAQHTKTGTFINSQGTGYKQVTNEPKNNPFLSNQYTGLPSTNIVPTQTGYGFGNQPQSPPTNSPQQNPTGISYSQPQQQQQPQQQPQYMQNFQQQQPQYAQNFQQQPQYTQNYQQQPQYIQPHQQQQQQQQQQQQQQGYTPDQGVSLIDL
notes: epsin Ent2, Saccharomyces cerevisiae, endogenous locus tagged with mNeonGreen; also called Ent2-WT-mNeonGreen; Ent2p; source: endogenously tagged, S. cerevisiae MK100, in living cells

Key:
[1] = molecular target: T1, ScChc-NTD; assay: Native MS titration of Ent5.1, 1.75 µM protein in 200 mM NH4AcO pH 9.0; assay type: binding; conditions: global non-linear square fitting of the five measured fractions, four independent sites with the same affinity; read-out: microscopic KD
Procedure: ScChc-NTD stocks were doubly buffer-exchanged into a 200 mM NH4AcO, pH 9.0 buffered solution by two subsequent runs on P6 biospins (BioRad); the protein concentration was determined photometrically (ε280 nm = 26,930 M^−1cm^−1) and the protein was diluted into 20 µl aliquots. Final samples contained 1.75 µM protein. Samples for competition experiments were prepared similarly for constant (20 µM) Ent1 and varying (0, 5, 10, 15, 20, 25, 30 and 50 µM) Ent2 concentrations and vice versa. Mass measurements. Samples were placed into gold-coated capillaries and after ionization by nano-electrospraying mass-measured in a QE-UHMR orbitrap mass spectrometer (Thermo Fisher Scientific) as follows: 1. establishment of a (“wet”) spray using a capillary voltage of 1.10-1.15 kV but with the syringe locked as to guarantee a relatively high backing pressure. 2. […] By doing so, success in the sense of as least as possible unspecific clusters could be easily monitored by spectrum appearance and distinct downward steps of the total ion current (TIC). […]
The processed output of the native MS interaction data consists of the relative fractions of CHC bound to different numbers of peptides. In this case, we detected CHC bound to up to four peptides. […]
To average the measured fractions related to similar free ligand concentrations, we used log-spaced intervals with base 1.1 starting at 0.011 μM. […]

[2] = molecular target: B5; assay: nanoDSF thermal shift; ScChc-NTD 8 µM incubated with eleven peptide concentrations (1:1 dilutions) for 15 min, heated 20-95 °C at 1 °C/min, SEC buffer (50 mM Tris pH 9, 150 mM NaCl, 0.5 mM TCEP); apparent KD from the Tm shift model, one to one binding assumed, global average over all boxes; conditions: both partners purified
[3] = molecular target: B5; assay: native MS; ScChc-NTD 1.75 µM in 200 mM NH4AcO pH 9.0, Ent5.1 peptide up to 100 µM; conditions: both partners purified
[4] = molecular target: the molecule itself; assay: crystal structure; sitting drop; NTD incubated with excess peptide (between 23 and 40 fold) for 15 min at room temperature (21 °C) before setting up plates
[5] = molecular target: T2, Clathrin heavy chain fused to mScarlet (Chc-mScarlet), wild type (Saccharomyces cerevisiae, UniProt P22137 1-1653); assay: FRET or BRET; acceptor photobleaching FRET in living yeast cells at endocytic patches stalled with Latrunculin A, donor mNeonGreen on Ent1/Ent2, acceptor mScarlet on Chc, 21 °C; trimmed mean FRET efficiency; conditions: partners not purified
T2 construct: Clathrin heavy chain, Saccharomyces cerevisiae, the ORF of CHC1 fused in the 3' with mScarlet; also called Chc1-mScarlet; ScCHC-mScarlet; not shown: mScarlet, C-terminal, kept

[6] = molecular target: T3, Chc-mScarlet Arrestin box mutant (Q195A, I197T, K251E) (Saccharomyces cerevisiae, UniProt P22137 1-1653, Q195A | I197T | K251E); assay: as above; conditions: partners not purified
T3 construct: Clathrin heavy chain, Saccharomyces cerevisiae, the ORF of CHC1 fused in the 3' with mScarlet, Arrestin box mutant; also called Arr mutant; source: S. cerevisiae MK100, mutated plasmid pRS315-5'UTR CHC-mScarlet, endogenous CHC1 knocked out, in living cells; not shown: mScarlet, C-terminal, kept

[7] = molecular target: T4, Chc-mScarlet Clathrin and Arrestin box mutant (Cla+Arr) (Saccharomyces cerevisiae, UniProt P22137 1-1653, K63E | I87D | Q89A | K98E | Q195A | I197T | K251E); assay: as above; conditions: partners not purified
T4 construct: Clathrin heavy chain, Saccharomyces cerevisiae, the ORF of CHC1 fused in the 3' with mScarlet, Clathrin and Arrestin box mutant; source: S. cerevisiae MK100, mutated plasmid pRS315-5'UTR CHC-mScarlet, endogenous CHC1 knocked out, in living cells; not shown: mScarlet, C-terminal, kept

- Kd [1]: 39.1 µM
Molecule: CC[C@H](C)[C@H](N)C(=O)N1CCC[C@H]1C(=O)N[C@@H](CC(=O)O)C(=O)N[C@@H](CC(C)C)C(=O)N[C@H](C(=O)N[C@@H](CC(=O)O)C(=O)N[C@@H](CC(C)C)C(=O)N[C@@H](CC(=O)O)C(=O)N[C@@H](CC(=O)O)C(=O)O)[C@@H](C)CC (single isomer, unassigned) [Ent5.1]

Molecule: B1
- Kd [2]: ~598 µM

Molecule: B2
- Kd [2]: ~311 µM

Molecule: B3
- stoichiometry N [3]: 3
- Kd [2]: ~34 µM

Molecule: B4
- Kd [2]: ~245 µM

Molecule: B5
- binding result [4]: binds

Molecule: B6
- FRET efficiency [5]: 9.02%
- FRET efficiency [6]: 6.7%
- FRET efficiency [7]: 6.1%

Source: PMC11543927, “Subtleties in Clathrin heavy chain binding boxes provide selectivity among adaptor proteins of budding yeast” (Nature Communications, 2024)
